Measured values from publication PMC10665668.

Key:
[1] = molecular target: class II sulfofructose-1-phosphate (SFP) aldolase from Yersinia aldovae (Yersinia aldovae); test: SEC-MALS
[2] = molecular target: class II sulfofructose-1-phosphate (SFP) aldolase from Hafnia paralvei (Hafnia paralvei); test: SEC-MALS

stoichiometry N [1]	stoichiometry N [2]	Substance
4	–	class II sulfofructose-1-phosphate (SFP) aldolase from Yersinia aldovae (enzyme)
–	4	class II sulfofructose-1-phosphate (SFP) aldolase from Hafnia paralvei (enzyme)
